Measured values from US20050049403A1 (CAMBRIDGE ANTIBODY TECHNOLOGY, published 2005).

Legend:
recombinant human TGFβ2 [1] = target: T1, recombinant human TGFβ2 (human, UniProt P61812 303-414); experiment: cell-based or functional assay
T1 sequence (looked up): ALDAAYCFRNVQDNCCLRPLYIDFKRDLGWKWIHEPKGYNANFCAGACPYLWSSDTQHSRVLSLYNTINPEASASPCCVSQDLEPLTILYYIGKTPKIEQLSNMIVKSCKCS

recombinant human TGFβ1 = recombinant human TGFβ1 (human, UniProt P01137 279-390); experiment: cell-based or functional assay
recombinant human TGFβ2 [2] = target: T1, recombinant human TGFβ2; experiment: cell-based or functional assay; remark: listed apart in the source
recombinant human TGFβ2 [3] = target: T1, recombinant human TGFβ2; experiment: BIAcore 2000, koff divided by kon
Protocol: To determine the kinetic parameters, a series of dilutions of the antibody samples was made in HBS from about 500 μg/ml down to less than 1 μg/ml, usually through doubling dilutions. After the antibody has been injected over the antigen surface, the surface is washed with HBS, then regenerated by stripping off the bound antibody with a pulse of 100 mM HCl. At the higher concentrations of antibody the antigen on the chip surface is saturated, and the off rate is determined on washing with buffer in the dissociation phase. For determination of the on-rate, lower concentrations of antibody are used, giving a linear binding phase in the sensorgram, allowing kₒₙ determination.
6B1 IgG4 was purified from the GS/NS0 cell line of Example 10 as in Example 2. 6B1 single chain Fv was expressed intracellularly in E. coli, refolded in vitro (using the methodology of WO94/18227), and purified to give a homogeneous product. The values of kₒₙ and koff were determined for 6B1 IgG4 for binding to both TGFβ2 and TGFβ3, and for the single-chain Fv 6B1 for binding to TGFβ2. The dissociation constant was calculated by dividing koff by kₒₙ.

human lymphotoxin (TNFβ) = target: T2, human lymphotoxin (TNFβ) (human, UniProt P01374 35-205, limits assumed); experiment: ELISA, antigen coated at 10 µg/ml, anti-human Fc alkaline phosphatase conjugate, OD405 nm [a]
T2 sequence (looked up): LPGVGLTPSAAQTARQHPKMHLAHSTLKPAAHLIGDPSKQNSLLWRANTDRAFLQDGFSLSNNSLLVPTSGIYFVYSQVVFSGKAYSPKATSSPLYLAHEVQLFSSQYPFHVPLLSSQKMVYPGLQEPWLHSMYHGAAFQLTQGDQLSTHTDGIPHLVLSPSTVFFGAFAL
Protocol: (§1) For both FIG. 13(a) and FIG. 13(b), antigens 1 to 15 were used for coating the plate at a concentration of 10 μg/ml in PBS. The TGFbetas were coated at 0.2 μg/ml in PBS. Coating was performed at 4° C. overnight. […] of each antigen was used per well and duplicates of each antigen for each IgG to be tested. IgG samples were incubated with the coated antigens at 37° C. for 2 hours after blocking with 2%. marvel-PBS. The labelled second antibody was a mouse anti-human Fc1 alkaline phosphatase conjugated and the substrate used to detect bound second antibody was PNPP at 1 mg/ml with the absorbance read at 405 nm.

human insulin = human insulin (human, UniProt P01308 25-54; P01308 90-110, limits assumed); experiment: as above
Protocol: as §1

human serum albumin = human serum albumin (human, UniProt P02768 25-609); experiment: as above
Protocol: as §1

ovalbumin = target: T3, ovalbumin (UniProt P01012 2-386); experiment: as above
T3 sequence (looked up): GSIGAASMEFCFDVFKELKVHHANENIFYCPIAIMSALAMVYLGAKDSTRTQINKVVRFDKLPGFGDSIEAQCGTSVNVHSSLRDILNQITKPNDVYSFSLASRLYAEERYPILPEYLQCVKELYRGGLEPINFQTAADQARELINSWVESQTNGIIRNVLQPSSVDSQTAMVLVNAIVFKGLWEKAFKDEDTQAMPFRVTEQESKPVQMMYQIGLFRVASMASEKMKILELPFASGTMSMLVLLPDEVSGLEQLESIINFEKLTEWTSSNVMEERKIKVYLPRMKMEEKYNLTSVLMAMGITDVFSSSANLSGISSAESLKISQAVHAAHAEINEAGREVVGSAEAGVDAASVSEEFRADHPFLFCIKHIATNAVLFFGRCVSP
Protocol: as §1

hen egg lysozyme = hen egg lysozyme (hen, UniProt P00698 19-147); experiment: as above
Protocol: as §1

bovine serum albumin = target: T4, bovine serum albumin (bovine, UniProt P02769 25-607); experiment: as above
T4 construct: also called BSA
Protocol: as §1

recombinant human TGFβ2 [4] = target: T1, recombinant human TGFβ2; experiment: radioreceptor assay, inhibition of 125I-TGFβ2 binding to A549 cells; concentration of antibody combining sites
Protocol: Cells are seeded at 1-2×10^5 cells/ml/well into the wells of 24-well cluster plates and grown for 24 h in serum-free DMEM. Cell monlayers are washed twice with serum-free DMEM and 0.5 ml binding medium (DMEM/Hams F12 (Sigma D-6421) containing 0.1% (v/v) BSA added to each well.
Aliqouts of ¹²⁵I-TGFβ1 or TGFβ2 (70-90 TBq/mmol; Amersham International) at 20 pM are preincubated with antibody in binding medium at room temperature for 1 h. Duplicate samples of 0.5 ml of TGFβ/antibody mixtures are then added to the cell monlayers and are incubated at 37° C. for 1-2 h. Control wells contain TGFβ only. Unbound TGFβ is removed by washing 4 times with Hank's balanced salt solution containing 0.1% BSA. Cells are solubilised in 0.8 ml 25 mM Tris HCl pH 7.5, 10% glycerol, 1% Triton X-100 at room temperature for 20 min. The contents of each well are removed and ¹²⁵I measured in a gamma counter.

Sequence of human insulin (P01308 25-54 limits assumed, chain 1 of 2): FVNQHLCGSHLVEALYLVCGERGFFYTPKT
Sequence of human insulin (P01308 90-110 limits assumed, chain 2 of 2): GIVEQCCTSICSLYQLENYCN
Sequence of recombinant human TGFβ1 (P01137 279-390 limits assumed): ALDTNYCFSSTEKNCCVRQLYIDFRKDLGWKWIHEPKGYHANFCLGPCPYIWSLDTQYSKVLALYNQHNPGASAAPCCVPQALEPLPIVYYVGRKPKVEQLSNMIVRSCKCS
Sequence of hen egg lysozyme (P00698 19-147): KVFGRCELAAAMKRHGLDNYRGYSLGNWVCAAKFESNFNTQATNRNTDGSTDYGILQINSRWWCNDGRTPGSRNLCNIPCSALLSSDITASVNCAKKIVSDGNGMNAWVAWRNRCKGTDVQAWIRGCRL
Sequence of human serum albumin (P02768 25-609 limits assumed): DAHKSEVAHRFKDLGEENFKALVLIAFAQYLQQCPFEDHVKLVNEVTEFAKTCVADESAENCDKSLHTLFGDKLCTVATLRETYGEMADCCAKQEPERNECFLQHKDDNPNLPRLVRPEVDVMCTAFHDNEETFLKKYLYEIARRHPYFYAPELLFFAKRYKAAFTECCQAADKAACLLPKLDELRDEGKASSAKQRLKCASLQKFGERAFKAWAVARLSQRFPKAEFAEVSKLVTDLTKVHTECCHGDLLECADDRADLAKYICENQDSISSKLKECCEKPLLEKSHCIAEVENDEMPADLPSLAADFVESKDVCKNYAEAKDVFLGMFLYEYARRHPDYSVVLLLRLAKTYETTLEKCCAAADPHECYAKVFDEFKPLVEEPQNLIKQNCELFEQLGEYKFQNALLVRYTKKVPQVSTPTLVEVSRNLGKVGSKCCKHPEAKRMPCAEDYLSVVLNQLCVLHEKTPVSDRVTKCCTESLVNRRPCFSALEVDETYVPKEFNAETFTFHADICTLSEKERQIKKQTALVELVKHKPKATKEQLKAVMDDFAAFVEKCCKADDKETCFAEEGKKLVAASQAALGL
T4 sequence (P02769 25-607 limits assumed): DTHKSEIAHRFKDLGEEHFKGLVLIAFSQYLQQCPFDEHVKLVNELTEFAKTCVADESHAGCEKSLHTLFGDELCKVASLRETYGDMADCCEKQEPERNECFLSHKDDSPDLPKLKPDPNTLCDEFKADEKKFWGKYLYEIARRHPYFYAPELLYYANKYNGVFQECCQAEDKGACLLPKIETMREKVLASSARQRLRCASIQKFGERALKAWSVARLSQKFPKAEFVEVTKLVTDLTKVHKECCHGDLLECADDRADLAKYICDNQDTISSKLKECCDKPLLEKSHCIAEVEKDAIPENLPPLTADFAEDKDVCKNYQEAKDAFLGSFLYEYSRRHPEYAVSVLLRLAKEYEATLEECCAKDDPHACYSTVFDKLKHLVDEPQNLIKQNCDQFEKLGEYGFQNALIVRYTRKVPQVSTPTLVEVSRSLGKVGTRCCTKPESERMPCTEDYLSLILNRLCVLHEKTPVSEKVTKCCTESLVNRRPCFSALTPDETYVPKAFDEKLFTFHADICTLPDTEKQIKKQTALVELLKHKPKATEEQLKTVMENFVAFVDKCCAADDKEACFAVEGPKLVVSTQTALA

B1: 6B1 IgG4 (antibody, V domains shown)
VH: EVQLVESGGGVVQPGRSLRLSCAASGFTFSSYGMHWVRQAPGKGLEWVAVIWYDGSNKYYADSVKGRFTISRDNSKNTLYLQMDSLRAEDTAVYYCGRTLESSLWGQGTLVTVSS
VL: SSELTQDPAVSVALGQTVRITCQGDSLRSYYASWYQQKPGQAPVLVIYGKNNRPSGIPDRFSGSSSGNTASLTITGAQAEDEADYYCNSRDSSSTHRGVFGGGTKLTVLG
notes: Whole antibody: human gamma 4 and human lambda constant regions; FITC-labelled in the human tissue study; also called antibody 6B1
Recombinant human TGFβ2 [1]
  I.C.50 in TF1 assay (neutralisation of TGFβ2 inhibition of TF1 cell proliferation): 11 nM
Recombinant human TGFβ1
  TF1 cell proliferation assay IC50 (nM IgG): > 100 nM
Recombinant human TGFβ2 [2]
  TF1 cell proliferation assay IC50 (nM IgG): 2 nM
Recombinant human TGFβ2 [3]
  Kd: 0.89 nM
Human lymphotoxin (TNFβ)
  binding result: no binding
Human insulin
  binding result: no binding
Human serum albumin
  binding result: no binding
ovalbumin
  binding result: no binding
Hen egg lysozyme
  binding result: no binding
Bovine serum albumin
  binding result: no binding
Recombinant human TGFβ2 [4]
  IC50: 0.6 nM
